Experiments:
[1] = target: full-length human TIGIT on the cell membrane (human) (UniProt Q495A1); assay: cell-based or functional assay
[2] = target: T1, recombinant human TIGIT (Human TIGIT His, Sino Biological, 10917-H08H) (human, UniProt Q495A1 22-138); assay: competition ELISA, TIGIT-His coated, competitor CD155-mFC
T1 construct: range 1-138; Bought reagent; also called recombinant human TIGIT antigen; recombinant human TIGITE-HIS; not shown: C-terminal histidine tag
T1 sequence (looked up): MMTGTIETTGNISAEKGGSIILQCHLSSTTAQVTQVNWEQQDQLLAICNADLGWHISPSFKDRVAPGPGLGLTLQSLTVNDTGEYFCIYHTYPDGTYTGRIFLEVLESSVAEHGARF
Procedure: To determine whether human-mouse chimeric and humanized TIGIT monoclonal antibodies can inhibit the binding between CD155 and TIGIT, an in vitro ELISA assay was conducted. Tiragolumab was used as a positive control. […] The next day, after washing twice with PBS, the wells were blocked with 3% BSA, 100 μL per well, and incubated at 37° C. for 1.5 hours, followed by washing 4 times with PBST. Gradient diluted TIGIT monoclonal antibodies and CD155-mFC (6 μg/mL) (Human CD155 (Fc Tag): Sino Biological, 10109-H02H) were mixed in equal volumes and added to the blocked and washed microplate and incubated at 37° C. for 2 hours, followed by 4 washes with PBST. Subsequently, a diluted secondary antibody HRP-conjugated anti-mFC (Jackson Immuno Research, 115-035-164) was added and incubated at 37° C. for 1.5 hours. After washing 4 times with PBST, TMB coloring solution was added, and the plate was incubated at 37° C. for 10-15 minutes before reading on a microplate reader (wavelengths 450 nm and 655 nm).
As shown, all TIGIT monoclonal antibodies could specifically block the binding between TIGIT and CD155.

[3] = target: T2, full-length human TIGIT on the cell membrane (human, UniProt Q495A1 22-244); assay: flow cytometry on CHO-K cells expressing human TIGIT
T2 construct: whole, on cells; the cell is named under assay or readout; also called CHO-K-TIGIT; CHO-TIGIT
T2 sequence (looked up): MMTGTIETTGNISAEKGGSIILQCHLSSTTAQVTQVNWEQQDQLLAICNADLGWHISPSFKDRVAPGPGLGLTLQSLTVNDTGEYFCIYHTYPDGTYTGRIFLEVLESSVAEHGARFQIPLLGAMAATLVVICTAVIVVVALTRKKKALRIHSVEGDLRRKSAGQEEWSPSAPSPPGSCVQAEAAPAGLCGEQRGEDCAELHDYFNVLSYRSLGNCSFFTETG
Procedure: The flow cytometry method to study the binding of TIGIT antibodies to TIGIT protein on the cell membrane is briefly described as follows: Firstly, FACS buffer was prepared, which was a 1×PBS solution with 0.5% BSA. The required number of CHO-K-TIGIT cells, approximately 1×10⁵ to 5×10⁵ cells per sample, was taken and suspended in FACS buffer. […] The cells were incubated in a refrigerator at 4° C. for 30 minutes, washed once with FACS buffer, and then resuspended in FITC-conjugated anti-human IgG (Abcam: 6854) diluted in FACS buffer. The cells were incubated again in a refrigerator at 4° C. for 30 minutes. Finally, after washing the cells with FACS buffer, the cells were resuspended in 200 μL of FACS buffer for analysis, and subjected to detection.

[4] = target: T1, recombinant human TIGIT (Human TIGIT …); assay: ELISA, recombinant human TIGIT-His coated
Procedure: The activity of TIGIT antibody-IL2 fusion protein binding TIGIT of the present disclosure in vitro was detected using ELISA. The ELIS was conducted as follows: coated with 50 μl of NaHCO₃(pH9.6) buffer containing […] recombinant human TIGITE-HIS overnight at 4° C.; on the next day, washed twice with PBS, followed by blocking with 3% BSA, 100 μL per well; incubated at 37° C. for 1.5h, and washed with PBST for 4 times. TIGIT antibody-IL2 fusion protein was diluted in a gradient with a binding solution (TBST containing 1% BSA), and added into the blocked and washed ELISA plate (50 μl per well), and incubated at 37° C. for 2 h. After washing with PBST for 4 times, a certain proportion of diluted anti-HFC (Jackson Immuno Research) labeled with alkaline phosphatase was added to each well and incubated at 37° C. for 1.5h. Finally, after washing with PBST for 4 times, PNPP color developing solution was added and incubated at 37° C. for 10-15 min, followed by reading on a microplate reader (wavelengths 405 nm and 490 nm). Human TIGIT monoclonal antibody P03479 was used as positive control.

mouse TIGIT = target: T3, mouse TIGIT (mouse, UniProt P86176 29-148, limits assumed); assay: not described
T3 sequence (looked up): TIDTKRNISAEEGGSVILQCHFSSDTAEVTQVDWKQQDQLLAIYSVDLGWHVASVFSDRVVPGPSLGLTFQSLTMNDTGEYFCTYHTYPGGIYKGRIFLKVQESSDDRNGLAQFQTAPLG

[5] = target: T2, full-length human TIGIT on the cell …; assay: flow cytometry on Jurkat cells expressing human TIGIT
Procedure: The binding activity of the anti-TIGIT antibody-IL2 fusion proteins to TIGIT on the cell membrane was tested using flow cytometry. A Jurkat cell line stably expressing human TIGIT was first established. The full-length human TIGIT gene (Sinobio) was amplified by PCR and cloned into the mammalian cell expression vector pcDNA3.1 (Invitrogen), using Not I and Xba I as cloning enzymes. The TIGIT expression plasmid was transfected into Jurkat cells to construct a stable Jurkat cell line expressing TIGIT (TIGIT-Jurkat).
The flow cytometry study method for the binding of TIGIT antibody-IL2 fusion proteins to cell membrane-bound TIGIT is summarized as follows: FACS buffer (1×PBS+0.5% BSA solution) was prepared. The required number of TIGIT-Jurkat cells, about 1×10⁵ to 5×10⁵ cells per sample, was taken and incubated with TIGIT antibody-IL2 fusion protein diluted to a certain ratio in FACS buffer, approximately 100 μL, at 4° C. for 30 minutes. After washing the cells once with FACS buffer, they were resuspended in FITC-conjugated anti-human IgG (Abcam: 6854) diluted in FACS buffer and incubated at 4° C. for 30 minutes. Finally, after washing the cells with FACS buffer, they were resuspended in 200 μL of FACS buffer for analysis. The parent TIGIT antibody P03479 was used as a control.
The results were consistent with those obtained by binding recombinant TIGIT in vitro (Example 6).

[6] = target: T4, recombinant IL2Rβ subunit (Sinobio) (UniProt P14784 27-239); assay: BLI, recombinant IL2Rβ subunit
T4 construct: also called IL2β subunit
T4 sequence (looked up): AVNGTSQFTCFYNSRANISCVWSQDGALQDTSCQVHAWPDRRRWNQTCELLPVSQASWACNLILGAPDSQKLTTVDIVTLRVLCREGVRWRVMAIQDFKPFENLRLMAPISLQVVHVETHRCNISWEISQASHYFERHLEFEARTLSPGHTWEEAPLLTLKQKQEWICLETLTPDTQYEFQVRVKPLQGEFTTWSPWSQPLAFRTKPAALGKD

[7] = target: T5, IL2Rαγ (dimer) on 293F cells (human, UniProt P01589 22-272; P31785 23-369); assay: flow cytometry on 293F cells expressing IL2Rαγ
T5 construct: whole, on cells
T5 sequence (looked up) 1: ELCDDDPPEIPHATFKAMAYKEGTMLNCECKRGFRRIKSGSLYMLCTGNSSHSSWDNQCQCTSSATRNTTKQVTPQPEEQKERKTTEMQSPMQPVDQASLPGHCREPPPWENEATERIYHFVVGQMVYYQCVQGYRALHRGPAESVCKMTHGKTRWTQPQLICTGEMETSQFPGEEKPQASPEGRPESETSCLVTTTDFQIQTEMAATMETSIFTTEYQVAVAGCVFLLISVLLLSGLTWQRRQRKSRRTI
T5 sequence (looked up) 2: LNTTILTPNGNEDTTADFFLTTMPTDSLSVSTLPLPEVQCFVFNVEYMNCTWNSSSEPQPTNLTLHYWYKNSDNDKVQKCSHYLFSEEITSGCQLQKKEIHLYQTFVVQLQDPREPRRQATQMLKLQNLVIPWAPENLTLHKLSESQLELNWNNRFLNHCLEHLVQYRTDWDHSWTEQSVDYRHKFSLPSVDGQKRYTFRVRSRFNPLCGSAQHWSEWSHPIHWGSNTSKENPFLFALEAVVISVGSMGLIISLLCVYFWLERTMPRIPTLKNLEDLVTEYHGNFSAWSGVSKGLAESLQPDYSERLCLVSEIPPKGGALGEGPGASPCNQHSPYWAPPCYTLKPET
Description: First, human IL2Rα, IL2Rβ, and IL2Rγ expression plasmids (Sinobio) were co-transfected into 293F cells to transiently express the following IL2R complexes: IL2Rαβγ (trimer), IL2Rαγ (dimer), and IL2Rβγ (dimer). The expression of the respective IL2R subunits on the cell membrane was detected using antibodies against IL2Rα, IL2Rβ, and IL2Rγ.
Then, the binding activity of KD5201F, KD5201E, and control protein-1 to the 293F cells expressing the two types of IL2R complexes (αγ and βγ) was detected using flow cytometry.

[8] = target: T6, mouse IL2R on CTLL-2 cells (mouse, UniProt P01590 22-268); assay: cell-based or functional assay
T6 sequence (looked up): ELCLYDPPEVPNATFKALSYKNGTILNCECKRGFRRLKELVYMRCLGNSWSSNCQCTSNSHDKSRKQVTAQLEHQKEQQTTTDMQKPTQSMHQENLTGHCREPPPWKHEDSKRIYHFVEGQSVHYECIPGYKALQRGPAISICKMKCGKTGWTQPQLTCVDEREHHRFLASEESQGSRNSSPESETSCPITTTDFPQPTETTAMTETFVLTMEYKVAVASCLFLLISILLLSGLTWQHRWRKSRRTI

Q: With Tiragolumab (antibody) as the molecule, how does the IFNγ release from PHA-activated PBMCs, increase over the blank [1] read?
A: The IFNγ release from PHA-activated PBMCs, increase over the blank was 16%.

B1: humanized anti-human TIGIT monoclonal antibody P03479 (7103-07 huVH2VL1) (antibody, V domains shown)
VH: EVQVVESGGGLVKPGGSLRLSCAASGFTFSTYAMSWVRQAPGKGLEWVAEISSGGSHTFYADTVKGRFTISRDNAKNTLYLQMNSLRAEDTAVYYCARKTLDYYALDYWGQGTTVTVSS
VL: DVQITQSPSYLSASVGDRVTINCRASKSISKYLAWYQQKPGKAPKLLIYSGSRLQSGIPSRFSGSGYGTDFTLTISSLQPEDFATYYCQQHNEYPWTFGGGTKLEIK
notes: The constant region is described as IgG1 gamma in the embodiments; also called parent TIGIT antibody P03479
Q: What does the source list for B1?
A: IC50 [2]: 0.107 µg/mL; EC50 [3]: 0.144 µg/mL; EC50 [4]: 0.0184 µg/mL; binding result (mouse TIGIT): no binding; EC50 [5]: 0.0315 µg/mL

B2: KD5201E, HC(DANG)-IL2mut-1/LC(ART-Ig) anti-TIGIT antibody-IL2 fusion protein (other)
heavy 1: EVQVVESGGGLVKPGGSLRLSCAASGFTFSTYAMSWVRQAPGKGLEWVAEISSGGSHTFYADTVKGRFTISRDNAKNTLYLQMNSLRAEDTAVYYCARKTLDYYALDYWGQGTTVTVSSASTKGPSVFPLAPSSKSTSGGTAALGCLVKDYFPEPVTVSWNSGALTSGVHTFPAVLQSSGLYSLSSVVTVPSSSLGTQTYICNVNHKPSNTKVDKKVEPKSCDKTHTCPPCPAPELLGGPSVFLFPPKPKDTLMISRTPEVTCVVVAVSHEDPEVKFNWYVDGVEVHNAKTKPREEQYGSTYRVVSVLTVLHQDWLNGKEYKCKVSNKALPAPIEKTISKAKGQPREPQVYTLPPSRKEMTKNQVSLTCLVKGFYPSDIAVEWESNGQPENNYKTTPPVLDSDGSFFLYSKLTVDKSRWQQGNVFSCSVMHEALHNRYTQKSLSLSPGGGGGSGGGGSGGGGSAPTSSSTKKTQLQLEHLLLDLQMILNGINNYKNPKLTRMLTAKFYMPKKATELKHLQCLEEELKPLEEVLNLAQSKNFHFDPRDVVSNINVFVLELKGSETTFMCEYADETATIVEFLNRWITFCQSIISTLT
heavy 2: EVQVVESGGGLVKPGGSLRLSCAASGFTFSTYAMSWVRQAPGKGLEWVAEISSGGSHTFYADTVKGRFTISRDNAKNTLYLQMNSLRAEDTAVYYCARKTLDYYALDYWGQGTTVTVSSASTKGPSVFPLAPSSKSTSGGTAALGCLVKDYFPEPVTVSWNSGALTSGVHTFPAVLQSSGLYSLSSVVTVPSSSLGTQTYICNVNHKPSNTKVDKKVEPKSCDKTHTCPPCPAPELLGGPSVFLFPPKPKDTLMISRTPEVTCVVVAVSHEDPEVKFNWYVDGVEVHNAKTKPREEQYGSTYRVVSVLTVLHQDWLNGKEYKCKVSNKALPAPIEKTISKAKGQPREPQVYTLPPSREEMTKNQVSLTCLVKGFYPSDIAVEWESNGQPENNYKTTPPVLDSDGSFFLYSKLTVDKSRWQQGNVFSCSVMHEALHNHYTQESLSLSPG
light: DVQITQSPSYLSASVGDRVTINCRASKSISKYLAWYQQKPGKAPKLLIYSGSRLQSGIPSRFSGSGYGTDFTLTISSLQPEDFATYYCQQHNEYPWTFGGGTKLEIKRTVAAPSVFIFPPSDEQLKSGTASVVCLLNNFYPREAKVQWKVDNALQSGNSQESVTEQDSKDSTYSLSSTLTLSKADYEKHKVYACEVTHQGLSSPVTKSFNRGEC
notes: IL2mut-1 = F42A/L80F/R81D/L85V/I86V/I92F on the C-terminus of one heavy chain; Fc with D265A/N297G; also called HC1(DANG)-IL2mut/LC1(ART-Ig); HC1-IL2mut/LC1 (ART-Ig)
Q: B2 was tested. Which Kd [6] did it give?
A: Its Kd is roughly 8.2 nM.

Q: Does B2 bind [7]?
A: Result: binds

Q: What about the “EC50 of stimulating CTLL-2 cell growth (CCK-8)” value [8] of the same molecule?
A: Its value is 0.0153 µg/mL.
